Source: US10857209B2, “Lysosomal acid lipase and PPAR gamma ligands as immune therapies for cancer treatment” (Indiana University Research and Technology Corporation, priority 2016, dated 2020)

T1: PPARγ (Mus musculus, UniProt P37238)
T1 construct: host or cells: lal-/- mice (lung)
T1 sequence (P37238 1-505): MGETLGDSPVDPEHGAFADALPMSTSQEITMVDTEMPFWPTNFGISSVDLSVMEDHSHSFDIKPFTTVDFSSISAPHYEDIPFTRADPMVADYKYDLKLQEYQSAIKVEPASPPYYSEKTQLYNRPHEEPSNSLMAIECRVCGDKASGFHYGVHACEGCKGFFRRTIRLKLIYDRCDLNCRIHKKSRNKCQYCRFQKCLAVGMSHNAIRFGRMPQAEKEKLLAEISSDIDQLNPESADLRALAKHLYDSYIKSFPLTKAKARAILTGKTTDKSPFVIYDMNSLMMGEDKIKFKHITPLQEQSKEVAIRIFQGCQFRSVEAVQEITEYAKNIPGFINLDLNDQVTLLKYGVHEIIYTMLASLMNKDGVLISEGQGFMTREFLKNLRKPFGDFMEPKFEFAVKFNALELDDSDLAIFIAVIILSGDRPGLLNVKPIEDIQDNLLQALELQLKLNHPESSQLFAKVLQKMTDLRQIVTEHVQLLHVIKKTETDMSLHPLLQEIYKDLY

B1: hLAL: human lysosomal acid lipase expressed from a doxycycline-controlled tissue-specific transgene in lal−/− mice; never administered as a protein (protein)
chain: GPKPVVFLQHGLLADSSNWVTNLANSSLGFILADAGFDVWMGNSRGNTWSRKHKTLSVSQDEFWAFSYDEMAKYDLPASINFILNKTGQEQVYYVGHSQGTTIGFIAFSQIPELAKRIKMFFALGPVASVAFCTSPMAKLGRLPDHLIKDLFGDKEFLPQSAFLKWLGTHVCTHVILKELCGNLCFLLCGFNERNLNMSRVDVYTTHSPAGTSVQNMLHWSQAVKFQKFQAFDWGSSAKNYFHYNQSYPPTYNVKDMLVPTAVWSGGHDWLADVYDVNILLTQITNLVFHESIPEWEHLDFIWGLDAPWRLYNKIINLMRKYQ
modifications: left off: small tags and cut ends
notes: human lysosomal acid lipase expressed from a doxycycline-controlled tissue-specific transgene in lal−/− mice; never administered as a protein

Tests used:
PPARγ = molecular target: T1, PPARγ; conditions: previously reported; cited from earlier work
[1] = system: pulmonary endothelial cells (ECs); assay: In vitro BALF treatment of pulmonary endothelial cells (proliferation, wound healing); format: cell-based, mouse
Procedure: ECs were isolated from lal^+/+ lungs and cultured in vitro. Briefly, the mouse was anesthetized and 1 mL collagenase A (2 mg/mL, Roche, Indianapolis, Ind., USA) was infused into the lung through the trachea. The lung was removed and then incubated with 10 mL collagenase A at 37° C. for 30 minutes. After the incubation, the resulting cell suspension was filtered through a 40 μm strainer and centrifuged for 5 minutes at 1,500 rpm. After removal of the supernatant, the cell pellet was subjected to magnetic bead sorting using anti-CD31 microbeads (Miltenyi Biotec., Auburn, Calif., USA) according to the manufacturer's protocol. The resulting cells were plated onto gelatin-coated (Sigma-Aldrich) 6-well plates and maintained in DMEM supplemented with endothelial cell growth supplement, heparin, L-Glutamine (Sigma-Aldrich), FBS, and Antibiotic-Antimycotic (Gibco).
To examine the effect of BALF on EC proliferation, 5×10^4 ECs were seeded into a well of 24-well plates in 250 μL DMEM supplemented with 10% FBS, and then treated with 250 μL BALF harvested from lal^+/+, lal^−/− or CCSP-Tg/KO triple mice. Seventy-two hours later, the number of ECs was counted.
To analyze the effects of BALF on tumor cell or EC migration, in vitro wound healing assays were performed. […]

B16 melanoma cells [2] = assay: B16 melanoma growth and metastasis in myeloid-specific hLAL Tg/KO triple mice; format: in vivo, mouse; conditions: myeloid-specific expression
Description: lal^+/+ and lal^−/− mice of the FVBN background were bred in house. c-fms-rtTA/(TetO)7-CMV-hLAL; lal^−/− (Tg/KO) triple mice of the FVBN background is a previously generated triple transgenic mouse model with myeloid-specific doxycycline-inducible expression of wild-type human LAL (hLAL) in lal^−/− mice under the control of the c-fms promoter. All scientific protocols involving the use of animals have been approved by the Institutional Animal Care and Use Committee of Indiana University School of Medicine and followed guidelines established by the Panel on Euthanasia of the American Veterinary Medical Association. Animals were housed under Institutional Animal Care and Use Committee-approved conditions in a secured animal facility at the Indiana University School of Medicine.
Four-month-old lal^+/+ or lal^−/− mice were inoculated with 1×10^5 B16 melanoma cells subcutaneously into the flank region, and tumor size (length×width^2×π/6) was monitored every week for 3 weeks. For intravenous injection of B16 melanoma cells, 5×10^5 B16 melanoma cells in 200 μl PBS were injected into 4-month-old lal^+/+ or lal^−/− mice via tail vein. A pilot study was performed to determine the best ratio between MDSCs and B16 melanoma cells. For co-injection of MDSCs and B16 melanoma cells via tail vein, 2×10^6 MDSCs and 5×10^5 B16 melanoma cells were mixed and incubated at 37° C. and 5% CO2 for 30 minutes. […]

B16 melanoma cells [3] = assay: B16 melanoma metastasis in LAP-Tg/KO mice; format: in vivo, mouse; conditions: hepatocyte-specific expression in lal−/− mice; 5×10^5 cells i.v., two weeks
Description: LAP-tTA/(TetO)7-CMV-hLAL; lal^−/− (LAP-Tg/KO) triple mice of the FVB/N background was established by cross-breeding of LAP-tTA transgenic mice (Jackson's Laboratory, Bar Harbor, Me.) with a previously generated (tetO)7-CMV-hLAL transgenic mice into lal^−/− mice. This triple transgenic mouse model was hepatocyte-specific Tet-off expression of wild-type hLAL in lal^−/− mice under the control of the LAP. All scientific protocols that involved the use of animals were approved by the Institutional Animal Care and Use Committee of Indiana University School of Medicine and followed guidelines established by the Panel on Euthanasia of the American Veterinary Medical Association. Animals were housed in a secured animal facility at Indiana University School of Medicine.
Tissues from the liver, intestine, and lung were collected after mice were anesthetized. All tissues were washed with phosphate-buffered saline and dehydrated by a series of increasing ethanol concentrations, followed by paraffin embedding. Sections were stained with anti-Ki67 antibody, anti-LAL antibody, and anti-F4/80 antibody by the histologic core.
For experimental metastasis, 5×10^5 B16 melanoma cells in 200 μL of phosphate-buffered saline were injected into the mice via tail vein. Two weeks after the injection, the mice were sacrificed, and the livers and lungs were harvested for examination of metastasis.

| Molecule | lal−/− pulmonary inflammation and aberrant gene expression (PPARγ) | EC migration (wound healing) ([1]; BALF from doxycycline-treated CCSP-Tg/KO mice, 15 hours, mitomycin C) | EC proliferation ([1]; lal+/+ ECs with BALF from doxycycline-treated CCSP-Tg/KO mice, 72 hours) | decrease of tumor volume vs untreated mice (B16 melanoma cells [2]; doxycycline-treated Tg/KO triple mice, B16 s.c., 2 weeks post-injection) | melanoma colonies in the lungs (B16 melanoma cells [2]; doxycycline-treated vs untreated Tg/KO triple mice, B16 i.v., 2 weeks) | B16 melanoma cell metastasis in liver and lung (B16 melanoma cells [3]) |
| --- | --- | --- | --- | --- | --- | --- |
| 9-hydroxyoctadecadienoic acid [9-HODE] | significantly rescued | – | – | – | – | – |
| B1 | – | decreased EC migration | decreased EC proliferation | 50% | reduced number of melanoma colonies in the lungs | reduced B16 melanoma cell metastasis |
